Data set [1] concerns the target Bacillus stearothermophilus DnaB (replicative helicase) (Bacillus stearothermophilus NCA 1503) (UniProt Q9X4C9). The experiment in a line: SEC.
Data set [2] deals with the molecule itself. The experiment in a line: SEC. In general terms: Size exclusion chromatography separates by hydrodynamic size, large species first.
The target in data set [3] is T1, Bacillus stearothermophilus DnaB (replicative helicase) (Bacillus stearothermophilus NCA 1503, UniProt Q9X4C9 1-454).
T1 sequence (looked up): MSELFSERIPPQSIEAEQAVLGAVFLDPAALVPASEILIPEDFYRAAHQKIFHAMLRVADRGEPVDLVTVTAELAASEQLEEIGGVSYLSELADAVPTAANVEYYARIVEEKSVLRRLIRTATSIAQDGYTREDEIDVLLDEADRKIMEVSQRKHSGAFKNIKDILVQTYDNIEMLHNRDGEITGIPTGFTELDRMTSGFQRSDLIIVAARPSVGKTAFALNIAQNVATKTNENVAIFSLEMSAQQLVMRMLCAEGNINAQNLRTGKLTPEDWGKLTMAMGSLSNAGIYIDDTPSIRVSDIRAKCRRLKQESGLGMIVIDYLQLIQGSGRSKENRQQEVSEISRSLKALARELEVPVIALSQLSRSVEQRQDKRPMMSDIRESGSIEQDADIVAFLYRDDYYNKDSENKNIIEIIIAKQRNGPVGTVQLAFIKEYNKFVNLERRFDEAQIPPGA
In words: SEC + AUC.

Data set [4] deals with the molecule itself. In words: SEC. This is another data set of the same source.
Data set [5] concerns the molecule itself. In words: SEC. This is another data set of the same source.

Read-outs that look alike come from different tables or passages of the source.

“P16, C-terminal 16 kDa fragment of B. stearothermophilus DnaG (from UniProt Q9X4D0 451-597) (domain or fragment)” registered a stoichiometry N (P16 molecules per DnaB hexamer) in data set [1] of 3.

B1: P17, N-terminal 17 kDa fragment of B. stearothermophilus DnaB (domain or fragment, Bacillus stearothermophilus NCA 1503, UniProt Q9X4C9 1-154, looked up)
chain: MSELFSERIPPQSIEAEQAVLGAVFLDPAALVPASEILIPEDFYRAAHQKIFHAMLRVADRGEPVDLVTVTAELAASEQLEEIGGVSYLSELADAVPTAANVEYYARIVEEKSVLRRLIRTATSIAQDGYTREDEIDVLLDEADRKIMEVSQRK
In the case of B1, the “stoichiometry N” value in “SEC [2]” turned out to be 2.

B2: Bacillus stearothermophilus DnaG (primase) (enzyme, Bacillus stearothermophilus NCA 1503, UniProt Q9X4D0 1-597, looked up)
chain: MGHRIPEETIEAIRRGVDIVDVIGEYVQLKRQGRNYFGLCPFHGEKTPSFSVSPEKQIFHCFGCGAGGNAFTFLMDIEGIPFVEAAKRLAAKAGVDLSVYELDVRGRDDGQTDEAKAMTEAHALLKRFYHHLLVHTKEGQAALDYLQARGWTKETIDRFEIGYAPDAPDAAAKLLESHSFSLPVMEKAGLLTKKEDGRYVGRFRNRIMFPIHDHRGETVGFSGRLLGEGHPKYVNSPETPVFRKGAILYHFHAARVPIRKRQEALLVEGFADVISAAQAGIDYAIATMGTSLTEEQARILRPCDTITICYDGDRAGIEAAWAAAEQLSALGCRVKVASLPNGLDPDEYIRVYGGERFAGEAGCRRPLVAFKMAYLRRGKNLQHEGERLRYIDEALREIGKLSSPVEQDYYLRQLAEEFSLSLSALHEQLSRSQRERTKPREAPDGETARPMLAKKLLPAFQNAERLLLAHMMRSRDVALVVQERIGGRFNIEEHRALAAYIYAFYEEGHEADPGALISRIPGELQPLASDVSLLLIADDVSEQELEDYIRHVLNRPKWLMLKVKEQEKTEAERRKDFLTAARIAKEMIEMKKMLSSS
Turning to B2, the “stoichiometry N” value in data set [3] was 3 DnaG molecules per DnaB hexamer.

B3: P33, C-terminal 33 kDa fragment of B. stearothermophilus DnaB (domain or fragment, Bacillus stearothermophilus NCA 1503, UniProt Q9X4C9 155-454, looked up)
chain: HSGAFKNIKDILVQTYDNIEMLHNRDGEITGIPTGFTELDRMTSGFQRSDLIIVAARPSVGKTAFALNIAQNVATKTNENVAIFSLEMSAQQLVMRMLCAEGNINAQNLRTGKLTPEDWGKLTMAMGSLSNAGIYIDDTPSIRVSDIRAKCRRLKQESGLGMIVIDYLQLIQGSGRSKENRQQEVSEISRSLKALARELEVPVIALSQLSRSVEQRQDKRPMMSDIRESGSIEQDADIVAFLYRDDYYNKDSENKNIIEIIIAKQRNGPVGTVQLAFIKEYNKFVNLERRFDEAQIPPGA
Take B3: the “stoichiometry N” value was 2 in the data set “SEC [4]” and 6 in “SEC [5]”.

As usually defined, the stoichiometry N is the number of molecules, sites or subunits per partner or assembly.

For the origin of these results see publication PMC3188359 (Biochemistry, 2000).
